Reference: paper PMC3615019, “Mapping the Binding Interface between an HIV-1 Inhibiting Intrabody and the Viral Protein Rev” (PLoS ONE, 2013)

Biological target: T1, HIV-1 Rev protein (mobility shift assay, bound to stem-loop IIB RRE RNA) (HIV-1, strain  for this …, UniProt P04618)
T1 construct: also called IIB associated Rev
Test: native gel or EMSA
Conditions: both partners purified

T1 sequence (P04618 whole entry): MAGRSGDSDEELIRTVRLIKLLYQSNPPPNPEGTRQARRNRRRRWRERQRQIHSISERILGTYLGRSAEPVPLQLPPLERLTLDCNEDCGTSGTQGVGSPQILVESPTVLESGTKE

B1: Nb190, wild type, purified from E. coli (VHH)
VHH: QVQLQESGGGLVQAGGSLRLSCAASGSIFSINTMGWYRQAPGKQRELVAFATSGGSTNYPDSVKGRFTISRDNVKNTVYLQMNSLKPEDTAVYYCNIDGFLGSLYKDYWSQGTQVTVSS
B1: binds.
